{"source": "patent US11136407", "about": "(AIMM THERAPEUTICS B V, dated 2021)", "binders": {"B1": {"name": "antibody AT14-012 (antibody, V domains shown)", "VH": "EVQVVESGGGLVQPGRSLRLSCAASGFTFDDYAMHWVRQAPGKGLEWVSGISWNSGSIVYADSVKGRFTISRDNAKNSLYLQLNSLRAEDTAFYYCAKAVSGYYPYFDYWGQGILVTVSS", "VL": "not shown", "notes": "also called AT1412; WT AT14-012"}, "B2": {"name": "AT14-012 recombinant antibody engineered as an IgG1 (antibody, V domains shown)", "VH": "B1 VH", "VL": "not shown", "modifications": "Some experiments used Alexa647 or biotin labelled antibody, or a sortase-tagged (ST) heavy chain. None of this is carried in the letters.", "notes": "May be the same molecule as m1 if m1 stands for the IgG1 form; also called AT14-012 IgG1"}, "B3": {"name": "AT14-012 double mutant H40Y/Y112F (antibody, V domains shown)", "VH": "B1 VH with H35Y, Y104F", "VL": "not shown", "notes": "also called double group 1 mutant; combination group 1 mutant"}, "B4": {"name": "AT14-012 single mutant H40Y (antibody, V domains shown)", "VH": "B1 VH with H35Y", "VL": "not shown"}, "B5": {"name": "AT14-012 double mutant D116H/T29N (antibody, V domains shown)", "VH": "B1 VH with T28N, D108H", "VL": "not shown", "notes": "also called combination of the two group 2 mutations"}, "B6": {"name": "AT14-012 single mutant Y112F (antibody, V domains shown)", "VH": "B1 VH with Y104F", "VL": "not shown"}, "B7": {"name": "AT14-012 single mutant T29N (antibody, V domains shown)", "VH": "B1 VH with T28N", "VL": "not shown"}, "B8": {"name": "AT14-012 quadruple mutant H40Y/Y112F/D116H/T29N (antibody, V domains shown)", "VH": "B1 VH with T28N, H35Y, Y104F, D108H", "VL": "not shown", "notes": "also called quadruple variant"}, "B9": {"name": "2H15 B cell subclone 1F5 (antibody, V domains shown)", "VH": "B1 VH with Y104F", "VL": "not shown", "notes": "group 1; B cell supernatant"}, "B10": {"name": "2H15 B cell subclone 4D4 (antibody, IgG3, V domains shown)", "VH": "B1 VH", "VL": "DIVMTQSPDSLSVSLGERATINCKSSQSVLYSSNNKNYLGWYQQKPGQPPKLLIYWASIRESGVPDRFSGSGSGTDFTLTISSPQAEDVAVYYCQQYYTTPSTFGQGTRLEIK", "notes": "group 2; B cell supernatant, IgG3"}, "B11": {"name": "2H15 B cell subclone 4H10 (antibody, V domains shown)", "VH": "B1 VH with H35Y", "VL": "not shown", "notes": "group 1; B cell supernatant"}, "B12": {"name": "2H15 B cell subclone 2D12 (antibody, V domains shown)", "VH": "B1 VH with D108H", "VL": "not shown", "notes": "group 2; B cell supernatant"}, "B13": {"name": "2H15 B cell subclone 10D1 (antibody, V domains shown)", "VH": "B1 VH with H35Y", "VL": "not shown", "notes": "group 1; B cell supernatant"}, "B14": {"name": "2H15 B cell subclone 1D5 (antibody, V domains shown)", "VH": "B1 VH with H35Y", "VL": "not shown", "notes": "group 1; B cell supernatant"}, "B15": {"name": "AT14-012 single mutant D116H (antibody, V domains shown)", "VH": "B1 VH with D108H", "VL": "not shown"}}, "key": {"[1]": {"target": "T1, m4 circular peptide biotin-PEG(2)-CSPKKDVLETFTVKSSC (human, disulfide 1-17; not fully specified; printed as biotin-PEG(2)-CSPKKDVLETFTVKSSC)", "T1 construct": "synthetic peptide; also called circular constructed m4 peptide", "T1 peptide": "{Biotin-PEG2′}-CSPKKDVLETFTVKSSC", "experiment": "ELISA and SPR"}, "[2]": {"target": "T2, mouse CD9 on platelets (mouse, UniProt P40240 1-226)", "T2 construct": "whole, on cells", "T2 sequence (looked up)": "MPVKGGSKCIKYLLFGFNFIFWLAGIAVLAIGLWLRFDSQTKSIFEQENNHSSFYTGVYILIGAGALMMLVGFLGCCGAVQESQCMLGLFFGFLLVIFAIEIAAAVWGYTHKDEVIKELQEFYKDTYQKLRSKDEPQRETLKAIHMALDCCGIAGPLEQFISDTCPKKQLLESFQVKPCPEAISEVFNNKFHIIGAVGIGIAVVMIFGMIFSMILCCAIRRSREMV", "experiment": "flow cytometry on NSG mouse blood, IgG-bio SA-PeCy7"}, "[3]": {"target": "T3, surface CD81 (human, UniProt P60033)", "T3 construct": "also called CD81 on cells", "T3 sequence (tetraspanin chain, looked up)": "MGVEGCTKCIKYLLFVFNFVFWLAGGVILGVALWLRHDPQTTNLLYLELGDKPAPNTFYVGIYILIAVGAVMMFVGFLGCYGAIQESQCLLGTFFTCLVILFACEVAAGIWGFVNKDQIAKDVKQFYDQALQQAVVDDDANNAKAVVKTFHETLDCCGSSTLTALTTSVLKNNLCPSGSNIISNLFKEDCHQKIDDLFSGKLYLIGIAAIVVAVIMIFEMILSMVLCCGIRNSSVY", "experiment": "flow cytometry, AT14-12 (IgG1) against AT10-02 (IgG1) on transduced HL-60 cells"}, "[4]": {"target": "T4, CD9-3×FLAG-rabbitFc-Sortase-biotin (human; rabbit, biotin attached at the C-terminus by Sortase A with a GGG-biotin nucleophile; the HIS tag is removed by that reaction)", "T4 construct": "also called CD9-EC2-3×FLAG-rabbitFc; recombinant CD9-EC2 protein; not shown: Fc region (CH2-CH3) of a rabbit IgG1 protein, amino acids 108-322, UniProt P01870", "T4 chain (part 1 of 2)": "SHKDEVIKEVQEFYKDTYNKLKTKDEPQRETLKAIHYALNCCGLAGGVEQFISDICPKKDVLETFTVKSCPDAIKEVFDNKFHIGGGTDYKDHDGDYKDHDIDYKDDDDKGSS", "T4 chain (part 2 of 2)": "GGGSLPETGGHHHHHH", "experiment": "SPR on CD9 coated chip, CHO production supernatant"}, "[5]": {"target": "T5, human CD9 (human, UniProt P21926 2-228)", "T5 construct": "Natural CD9 on tumor cell lines, primary cells and platelets, or in their lysates (Western blot, immunoprecipitation); also called MRP-1; MIC3", "T5 sequence": "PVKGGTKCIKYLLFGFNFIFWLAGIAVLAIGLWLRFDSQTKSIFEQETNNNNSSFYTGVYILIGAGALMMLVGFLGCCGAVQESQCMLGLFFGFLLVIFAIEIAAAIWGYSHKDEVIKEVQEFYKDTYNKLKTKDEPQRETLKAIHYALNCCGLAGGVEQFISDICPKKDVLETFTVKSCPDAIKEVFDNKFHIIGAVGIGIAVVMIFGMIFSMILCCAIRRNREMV", "experiment": "flow cytometry on melanoma (MelWBO) cells, CHO supernatant"}, "[6]": {"target": "T4, CD9-3×FLAG-rabbitFc-Sortase-biotin", "experiment": "SPR on CD9-3xFLAG-rabbitFc-Sortase-biotin spots, CHO production supernatant; unit from the legend paragraph 219"}, "[7]": {"target": "T4, CD9-3×FLAG-rabbitFc-Sortase-biotin", "experiment": "SPR on CD9-3xFLAG-rabbitFc-Sortase-biotin spots, CHO production supernatant; unit and power of ten from the legend paragraph 219"}, "[8]": {"target": "T4, CD9-3×FLAG-rabbitFc-Sortase-biotin", "experiment": "SPR (IBIS), B cell supernatant on the CD9 spot; unit inferred"}}, "note": "Substitutions are numbered along the chain they refer to. Names and notes keep the numbering of the source. Bridges are numbered along the chain shown (N, C = ends). Primed or numbered codes have the meaning given here. Where no end group is shown, it is not given here. The star is where a group is joined. PEG2′ = PEG2 spacer group linking an N-terminal biotin to the peptide; Biotin = O=C1N[C@H]2[C@H](CS[C@H]2CCCCC(=O)*)N1", "data": [{"binder": "B1", "values": [{"measurement": "binding result", "setting": "[1]", "value": "no binding"}, {"measurement": "binding result", "setting": "[2]", "value": "no binding"}]}, {"binder": "B2", "values": [{"measurement": "binding result", "setting": "[3]", "value": "no binding"}]}, {"binder": "B3", "values": [{"measurement": "Kd", "setting": "[4]", "value": "~0.22", "unit": "nM"}, {"measurement": "fold enhancement of affinity against WT AT14-012", "setting": "[4]", "value": 250, "unit": "times"}, {"measurement": "binding result", "setting": "[5]", "value": "binds"}, {"measurement": "Kd", "setting": "[6]", "value": 0.219, "unit": "nM"}, {"measurement": "koff", "setting": "[7]", "value": "3.69e-05", "unit": "s⁻¹"}, {"measurement": "kon", "setting": "[7]", "value": 164000, "unit": "M⁻¹ s⁻¹"}]}, {"binder": "B4", "values": [{"measurement": "fold enhancement of affinity against WT AT14-012", "setting": "[4]", "value": 100, "unit": "times"}, {"measurement": "binding result", "setting": "[5]", "value": "binds"}, {"measurement": "Kd", "setting": "[6]", "value": 0.543, "unit": "nM"}, {"measurement": "koff", "setting": "[7]", "value": 0.000202, "unit": "s⁻¹"}, {"measurement": "kon", "setting": "[7]", "value": 372000, "unit": "M⁻¹ s⁻¹"}]}, {"binder": "B5", "values": [{"measurement": "binding result", "setting": "[5]", "value": "binds"}, {"measurement": "Kd", "setting": "[6]", "value": 4.19, "unit": "nM"}, {"measurement": "koff", "setting": "[7]", "value": 0.00297, "unit": "s⁻¹"}, {"measurement": "kon", "setting": "[7]", "value": 708000, "unit": "M⁻¹ s⁻¹"}]}, {"binder": "B6", "values": [{"measurement": "fold enhancement of affinity against WT AT14-012", "setting": "[4]", "value": 50, "unit": "times"}, {"measurement": "binding result", "setting": "[5]", "value": "binds"}, {"measurement": "Kd", "setting": "[6]", "value": 1.09, "unit": "nM"}, {"measurement": "koff", "setting": "[7]", "value": 0.000203, "unit": "s⁻¹"}, {"measurement": "kon", "setting": "[7]", "value": 185000, "unit": "M⁻¹ s⁻¹"}]}, {"binder": "B7", "values": [{"measurement": "binding result", "setting": "[5]", "value": "binds"}, {"measurement": "Kd", "setting": "[6]", "value": 50.1, "unit": "nM"}, {"measurement": "koff", "setting": "[7]", "value": 0.00126, "unit": "s⁻¹"}, {"measurement": "kon", "setting": "[7]", "value": 25900, "unit": "M⁻¹ s⁻¹"}]}, {"binder": "B8", "values": [{"measurement": "Kd", "setting": "[4]", "value": "~0.455", "unit": "nM"}, {"measurement": "fold lower affinity against the group 1 double mutant (H40Y/Y112F)", "setting": "[4]", "value": 2, "unit": "times"}, {"measurement": "binding result", "setting": "[5]", "value": "binds"}, {"measurement": "Kd", "setting": "[6]", "value": 0.455, "unit": "nM"}, {"measurement": "koff", "setting": "[7]", "value": "6.92e-05", "unit": "s⁻¹"}, {"measurement": "kon", "setting": "[7]", "value": 153000, "unit": "M⁻¹ s⁻¹"}]}, {"binder": "B9", "values": [{"measurement": "Kd", "setting": "[8]", "value": 3.8, "unit": "nM"}]}, {"binder": "B10", "values": [{"measurement": "Kd", "setting": "[8]", "value": 15.9, "unit": "nM"}]}, {"binder": "B11", "values": [{"measurement": "Kd", "setting": "[8]", "value": 6.1, "unit": "nM"}]}, {"binder": "B12", "values": [{"measurement": "Kd", "setting": "[8]", "value": 5.2, "unit": "nM"}]}, {"binder": "B13", "values": [{"measurement": "Kd", "setting": "[8]", "value": 3.9, "unit": "nM"}]}, {"binder": "B14", "values": [{"measurement": "Kd", "setting": "[8]", "value": 2.3, "unit": "nM"}]}, {"binder": "B15", "values": [{"measurement": "fold enhancement of affinity against WT AT14-012", "setting": "[4]", "value": 10, "unit": "times"}, {"measurement": "binding result", "setting": "[5]", "value": "binds"}, {"measurement": "Kd", "setting": "[6]", "value": 4.62, "unit": "nM"}, {"measurement": "koff", "setting": "[7]", "value": 0.00217, "unit": "s⁻¹"}, {"measurement": "kon", "setting": "[7]", "value": 470000, "unit": "M⁻¹ s⁻¹"}]}]}
